Test results taken from PMC3926839, “Evaluation of Zinc (II) chelators for inhibiting p53-mediated apoptosis”.

Target: FLAG-p53 (UniProt P04637 1-393)
Assay: EMSA; BPA (Zn(II) chelator) preincubated; no inhibition; FLAG-p53 12.5 nM; 10 mM Tris-HCl pH 7.4, 2.5 mM DTT, 0.05% NP-40; 10 min preincubation with chelator at 37 °C, then 3 h with probe at 37 °C; electrophoresis at
Conditions: protein: recombinant; tags: FLAG; chain copies: 4; label: FITC; blunt (only the sense strand is printed; it is self-complementary)

Chain of FLAG-p53 (P04637 whole entry): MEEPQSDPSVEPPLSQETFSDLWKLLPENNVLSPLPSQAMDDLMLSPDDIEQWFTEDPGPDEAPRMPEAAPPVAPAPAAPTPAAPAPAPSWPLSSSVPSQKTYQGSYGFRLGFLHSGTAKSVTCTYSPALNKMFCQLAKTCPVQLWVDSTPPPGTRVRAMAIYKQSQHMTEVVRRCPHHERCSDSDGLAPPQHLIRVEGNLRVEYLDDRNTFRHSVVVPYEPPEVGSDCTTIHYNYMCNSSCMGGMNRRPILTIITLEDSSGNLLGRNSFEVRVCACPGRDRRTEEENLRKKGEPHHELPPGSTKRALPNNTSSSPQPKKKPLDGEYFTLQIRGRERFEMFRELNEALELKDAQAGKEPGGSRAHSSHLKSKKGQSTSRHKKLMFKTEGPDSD

B1: p53 consensus probe (dsDNA)
DNA 1: GGACATGCCCGGGCATGTCC
DNA 2: GGACATGCCCGGGCATGTCC
B1: binds.
